Paper PMC6597583

What was measured:
[1] = target: BnCYP19-1 (Brassica napus)
[2] = target: AtCYP19-3 (Arabidopsis thaliana)
[3] = target: BnCYP18-5 (Brassica napus)
[4] = target: BnCYP18-4 (Brassica napus)

- IC50 of CsA for inhibition of PPIase activity (protease-coupled assay, substrate Suc-AAPF-pNA, 5 nM protein, 0 to 1000 nM CsA, 4 °C) [1]: 16.6 nM
- IC50 of CsA for inhibition of PPIase activity (protease-coupled assay, substrate Suc-AAPF-pNA, 5 nM protein, 0 to 1000 nM CsA, 4 °C) [2]: 20.4 nM
- IC50 of CsA for inhibition of PPIase activity (protease-coupled assay, substrate Suc-AAPF-pNA, 5 nM protein, 0 to 1000 nM CsA, 4 °C) [3]: 22.4 nM
- IC50 of CsA for inhibition of PPIase activity (protease-coupled assay, substrate Suc-AAPF-pNA, 5 nM protein, 0 to 1000 nM CsA, 4 °C) [4]: 14.2 nM
Substance: cyclosporin A (peptide)
